{"source": "paper PMC10382590", "about": "“Six states of Enterococcus hirae V-type ATPase reveals non-uniform rotor rotation during turnover” (Communications Biology, 2023)", "binders": {"B1": {"name": "Enterococcus hirae V-ATPase EG peripheral stalk (complex)", "chain 1": "MPIDKIITQINETAQLERASFEEMKRKEIDQKFEVKKWQIEADFQKEKASKLEEIERSYRQLRNKQKMQVKQEILNAKQEVLQRLFTEATLQLENEPKEEQLALMKQMIQTLPINGTARLIPGEKSADILTPAVIAEWNEELPFELIREDFTEKAQAGLIIDDAGIQYNFLFSHLIKEIQETMSAEIAKELFD", "chain 2": "MARILTRIKEAEENNQKKEEQVKAELAQYEQLKNNELIDLNKEFQERLTKLMKEKEKNEEEVTEDEQHKLELILEQFRQKVLEIEKTYLEKEEEEIAKKKNLTNEIIERMKQNNGCH", "notes": "E-subunit of the V-type Na+-ATPase of Enterococcus hirae; G-subunit of the V-type Na+-ATPase of Enterococcus hirae; Two such stalks stand in the complex; E and G were modelled by homology (templates PDB 4DT0 and 5GAS of other species); also called EG stalk complex; EG stalks; source: E. coli, recombinant; purified as part of the whole EhV-ATPase complex (Ni-NTA, Superdex 200, 0.05% DDM)"}, "B2": {"name": "Enterococcus hirae V-ATPase d-subunit (natural protein, UniProt P43456 1-328, looked up)", "chain": "MEYHELNPLIRGRELELISKDTFEQMIQTDSIDSLGEILQSTIYQPYIYDGFDKDFEANLSQERSKLFQWLKESAPEPEIVWIYTMRYTFHNLKVLTKAEITGQNLDHLYIHDGFYSLEVLKDAIHTQVSVELPDSLMDYIREVHEYCEESTILQGIDVIYDRCFLTEQRRLGEQLGYPELLEEIIAFIDLTNITTTARGILQHRSAGFMTTVISSSGSIPKDTLLSFVRGEMASFTQFLLTTDYSELLKQVIHEEQIDLVSLEQLKDDYLSSFYQVAQTQAFGPLPLLAFLNAKEVESKNLRLLIIGKRNHFSLEQLKERMRQVYDL", "notes": "d-subunit (terminus of the rotor shaft) of the V-type Na+-ATPase of Enterococcus hirae; Modelled by homology (I-TASSER, template PDB 1R5Z of another species) and fitted as a rigid body; also called rotor shaft terminus; source: E. coli, recombinant; purified as part of the whole EhV-ATPase complex (Ni-NTA, Superdex 200, 0.05% DDM)"}, "B3": {"name": "Enterococcus hirae V-ATPase D-subunit (natural protein)", "chain": "MRLNVNPTRMELTRLKKQLTTATRGHKLLKDKQDELMRQFILLIRKNNELRQAIEKETQTAMKDFVLAKSTVEEAFIDELLALPAENVSISVVEKNIMSVKVPLMNFQYDETLNETPLEYGYLHSNAELDRSIDGFTQLLPKLLKLAEVEKTCQLMAEEIEKTRRRVNALEYMTIPQLEETIYYIKMKLEENERAEVTRLIKVKNMGTEE", "notes": "D-subunit (rotor shaft) of the V-type Na+-ATPase of Enterococcus hirae; also called rotor D-subunit; source: E. coli, recombinant; purified as part of the whole EhV-ATPase complex (Ni-NTA, Superdex 200, 0.05% DDM)"}}, "key": {"[1]": {"biological_target": "T1, Enterococcus hirae V-ATPase a-subunit (Enterococcus hirae, UniProt P43439 1-664)", "T1 construct": "a-subunit (stator, membrane-integrated region and extrinsic arm) of the V-type Na+-ATPase of Enterococcus hirae; Modelled by homology (I-TASSER, template PDB 6C6L of another species); also called stator a-subunit; source: E. coli, recombinant; purified as part of the whole EhV-ATPase complex (Ni-NTA, Superdex 200, 0.05% DDM)", "T1 sequence (looked up)": "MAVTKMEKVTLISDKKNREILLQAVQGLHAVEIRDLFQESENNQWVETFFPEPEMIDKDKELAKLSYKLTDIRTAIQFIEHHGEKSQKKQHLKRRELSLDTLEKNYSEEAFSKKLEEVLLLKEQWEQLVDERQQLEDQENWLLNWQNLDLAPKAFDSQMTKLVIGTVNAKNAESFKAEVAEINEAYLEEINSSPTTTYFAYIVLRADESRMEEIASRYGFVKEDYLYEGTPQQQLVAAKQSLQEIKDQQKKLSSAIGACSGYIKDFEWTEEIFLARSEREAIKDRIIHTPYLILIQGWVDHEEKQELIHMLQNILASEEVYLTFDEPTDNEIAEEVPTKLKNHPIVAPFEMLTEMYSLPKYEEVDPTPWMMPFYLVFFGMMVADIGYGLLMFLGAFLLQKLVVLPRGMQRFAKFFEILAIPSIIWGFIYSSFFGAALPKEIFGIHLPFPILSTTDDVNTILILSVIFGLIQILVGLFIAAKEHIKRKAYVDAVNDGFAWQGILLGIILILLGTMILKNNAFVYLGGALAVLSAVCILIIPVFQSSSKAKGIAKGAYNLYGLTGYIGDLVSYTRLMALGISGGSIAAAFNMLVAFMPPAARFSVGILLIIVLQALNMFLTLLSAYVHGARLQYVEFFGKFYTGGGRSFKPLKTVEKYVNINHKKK", "test": "cryo-EM structure; detergent-solubilised (0.05% DDM) whole EhV-ATPase, 0.13 mM, with 7 mM ATP, 100 mM Na+ and Mg2+, vitrified during turnover; six states (1, 1', 2, 2', 3, 3') sorted from one sample, whole-complex maps 4.3-7.7 A, V1-focussed maps 3.8-7.7 A; crystal structures and homology models fitted into the maps", "settings": "both partners purified"}, "[2]": {"biological_target": "B2", "test": "cryo-EM structure; detergent-solubilised (0.05% DDM) whole EhV-ATPase, 0.13 mM, with 7 mM ATP, 100 mM Na+ and Mg2+, vitrified during turnover; six states (1, 1', 2, 2', 3, 3') sorted from one sample, whole-complex maps 4.3-7.7 A, V1-focussed maps 3.8-7.7 A; crystal structures and homology models fitted into the maps", "settings": "both partners purified"}}}
{"binder": "B1", "values": [{"measurement": "binding result", "setting": "[1]", "value": "binds"}]}
{"binder": "B2", "values": [{"measurement": "binding result", "setting": "[1]", "value": "binds"}]}
{"binder": "B3", "values": [{"measurement": "binding result", "setting": "[2]", "value": "binds"}]}
